In publication PMC4086270:

What was measured:
[1] = molecular target: endogenous SET (mouse (endogenous in adult mouse brain slices)) (UniProt Q9EQU5); assay: co-IP; lysates of adult mouse brain slices incubated 5 h 30 min with or without recombinant SET (4 μM); IP with polyclonal anti-SET (recognises endogenous and recombinant SET) and protein A Sepharose, overnight 4°C; Hepes 10 mM, NaCl 150 mM, CaCl2 2 mM, Triton X-100 1% pH 7.4; blot for total PP2A C subunit, then methyl-PP2A after stripping
[2] = molecular target: PP2A (total PP2A, detected with an anti-PP2A C subunit antibody) (mouse (endogenous in adult mouse brain slices)) (UniProt P63330)
[3] = molecular target: PP2A (total PP2A, detected with an anti-PP2A C subunit antibody) (mouse (endogenous in adult mouse brain slices)) (UniProt P63330); remark: listed apart in the source

Sequence of UniProt P63330 (P63330 whole entry): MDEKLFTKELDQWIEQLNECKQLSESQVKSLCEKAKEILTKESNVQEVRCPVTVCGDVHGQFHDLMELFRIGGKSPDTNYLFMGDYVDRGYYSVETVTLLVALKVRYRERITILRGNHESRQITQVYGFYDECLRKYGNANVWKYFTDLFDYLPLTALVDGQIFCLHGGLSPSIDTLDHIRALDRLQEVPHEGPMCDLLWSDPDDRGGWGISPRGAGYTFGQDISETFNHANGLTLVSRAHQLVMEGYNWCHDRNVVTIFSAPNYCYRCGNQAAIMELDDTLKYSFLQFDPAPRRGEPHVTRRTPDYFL
Sequence of UniProt Q9EQU5 (Q9EQU5 whole entry): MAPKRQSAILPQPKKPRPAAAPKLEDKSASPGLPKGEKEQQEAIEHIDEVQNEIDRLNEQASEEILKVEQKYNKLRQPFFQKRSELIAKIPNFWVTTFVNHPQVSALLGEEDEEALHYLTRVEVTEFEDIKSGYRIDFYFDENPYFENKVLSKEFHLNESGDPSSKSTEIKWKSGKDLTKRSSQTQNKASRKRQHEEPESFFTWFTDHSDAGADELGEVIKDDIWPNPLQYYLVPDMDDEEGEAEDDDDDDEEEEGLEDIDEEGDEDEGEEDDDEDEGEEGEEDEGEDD

| Substance | ratio of methyl-PP2A to total PP2A co-immunoprecipitated with SET [1] | PP2A activity (release of p-nitrophenol) on PP2A immunoprecipitated from brain slices containing internalized recombinant SET, percent of control [2] | ratio of methyl-PP2A to total PP2A by western blotting of brain slice lysates after 5 h 30 min of recombinant SET internalization, percent of the control ratio (% of control ratio) [3] |
| --- | --- | --- | --- |
| methylated PP2A (from UniProt P63330 1-309) (enzyme) | 2.18 |  |  |
| recombinant HA-tagged SET protein fused to the Penetratin vector (from UniProt Q01105 1-290) (natural protein) |  | 84 % of control | 83.6 |
